Columns and labels:
[1] = system: colon cancer cell line (CT26) tumor; assay: Nanostring Immune profiling of CT26 tumor tissue; format: in vivo, BALB/c mice; details: 25 mg/kg i.p., tumor RNA, vs control
Procedure: In order to identify changes in expression of immune cell- and tumor microenvironment-related markers when solid cancer models are administered the anti-CD300c monoclonal antibody (CL7) produced in Example 1, a colon cancer cell line (CT26) at 2×10^5 cells was transplanted by subcutaneous injection into 8-week-old BALB/c mice to prepare syngeneic mouse tumor models. Animal breeding and experiments were all conducted in a specific pathogen free (SPF) facility. In addition, 12 days after transplantation of the colon cancer cell line, the mice with a tumor size of 50 mm^3 to 100 mm^3 were separately administered the anti-CD300c monoclonal antibody, and for a control group, the mice were injected with the same amount of phosphate buffered saline (PBS). The mice were intraperitoneally injected with 25 mg/kg twice a week for two weeks over a total of 4 times. On day 25 after the injection, the mice were euthanized, and the tumor tissue was prepared. RNA was extracted and purified therefrom, and changes in dendritic cell markers, macrophage markers, tumor microenvironment (TME) markers, Th1 response markers, or Th2 response markers were identified through Nanostring Immune profiling.
On the basis of the Nanostring Immune profiling results obtained in Example 2.1, it was identified which immune checkpoint markers show a significant difference in expression compared with the control group when syngeneic mouse tumor models are administered the anti-CD300c monoclonal antibody.

[2] = system: colon cancer cell line (CT26) tumor; assay: IFN-g ELISPOT of spleen in CT26 syngeneic mouse tumor model; format: in vivo, BALB/c mice; details: 25 mg/kg i.p., day 25
Procedure: In order to identify effects of the anti-CD300c monoclonal antibody CL7 on CD8+ T cells under in vivo conditions, syngeneic mouse tumor models were prepared as in Experimental Example 3.2 and administered the anti-CD300c monoclonal antibody at the same concentration. On day 25 after injection, the mice were sacrificed, and spleen were collected from each of six mice in the CL7 25 mg/kg administration group showing a highest antitumor effect compared with the control group. Subsequently, the results were identified by measuring IFN-g through ELISPOT assay. Specifically, the Mouse IFN-g ELISpot kit was purchased from R&D Systems (#EL485), and IFN-g was measured according to the protocol for the kit.

[3] = system: A549 (human lung cancer cell line); assay: A549 cancer cell growth inhibition (CCK-8), CL7 and Imfinzi; format: cell-based; details: A549, 0% FBS, 10 μg/mL each, 5 days
From the text: (§1) In order to identify cancer cell growth inhibitory effects by combined administration of the anti-CD300c monoclonal antibody CL7 and an immunotherapeutic agent, the cancer cell growth inhibitory effects were compared using A549 (human lung cancer cell line) and MDA-MB-231 (human breast cancer cell line). Specifically, the cells were dispensed into a 96-well plate at 2×10^4 cells (A549) or 3×10^4 cells (MDA-MB-231) under 0% fetal bovine serum (FBS) conditions, and at 6×10^3 cells (A549) or 1×10^4 cells (MDA-MB-231) under 0.1% fetal bovine serum conditions. Subsequently, the cells were treated with the anti-CD300c monoclonal antibody and Imfinzi at 10 μg/mL alone or in combination, followed by incubation for 5 days. For a control group, the cells were treated with the same amount of phosphate buffer solution (PBS). Then, the cells were treated with CCK-8 (DOJINDO), and the absorbance was measured at OD 450 nm. The results are shown in FIG. 33 (A549) and FIG. 34 (MDA-MB-231).

[4] = system: MDA-MB-231 (human breast cancer cell line); assay: MDA-MB-231 cancer cell growth inhibition (CCK-8); format: cell-based; details: 10 μg/mL each, 5 days
From the text: as §1

[5] = system: mouse macrophages (Raw264.7); assay: TNF-α production in mouse macrophages (M1 differentiation); format: cell-based; details: Raw264.7, 10 μg/mL
Procedure: In order to identify whether anti-CD300c monoclonal antibodies can promote the differentiation from mouse macrophages into M1 macrophages, mouse macrophages (Raw264.7) were dispensed into a 96-well plate at a concentration of 1×10^4 cells/well, and then treated with 10 μg/mL CL7, followed by incubation. Thereafter, the production amount of TNF-α was identified by an ELISA kit (Human TNF-α Quantikine kit, R&D Systems).

[6] = system: CD300a antigen and seven B7 family protein antigens (PD-L1, ICOS Ligand, CD276, B7-H4, CD80, CD86, CD273); assay: Binding specificity ELISA against B7 family proteins; details: antigens coated at 8 μg/mL
Procedure: In order to identify that the anti-CD300c monoclonal antibody CL7 specifically binds only to CD300c without binding to other B7 family proteins, binding ELISA was performed. More specifically, each of CD300c antigen, CD300a antigen, or seven B7 family protein antigens (PD-L1 [B7-H1] (Sino Biological), ICOS Ligand[B7-H2] (Sino Biological), CD276[B7-H3] (Sino Biological), B7-H4 (Sino Biological), CD80[B7-1] (Sino Biological), CD86[B7-2] (Sino Biological), CD273[PD-L2] (Sino Biological)) in a coating buffer (0.1 M sodium carbonate, pH 9.0) was coated on an ELISA plate at a concentration of 8 μg/mL per well, and then bound to the plate by incubation at 2° C. to 8° C. overnight. The unbound antigen was removed by washing with PBST three times, and then […] of blocking buffer (5% skim milk in PBST) was added to each well. Subsequently, blocking was performed at room temperature for 1 hour, followed by washing again with PBST. Thereafter, CL7 was diluted in quadruplicate with PBS, incubated with the antigen at room temperature for 1 hour for antigen binding 1 hour later, and washed three times with PBST. […] Then, 2 N sulfuric acid solution was added to terminate the development reaction, and the absorbance was measured at 450 nm to identify the antibody specifically binding to the CD300c antigen.

[7] = system: colon cancer cell line (CT26) tumor; assay: Tumor volume, complete remission and long-term survival, CT26 model, combined administration; format: in vivo, BALB/c mice; details: CL7 25 mg/kg, anti-PD-1 10 mg/kg, anti-CTLA-4 4 mg/kg i.p. D11, D14, D18
From the text: Animal breeding and experiments were all conducted in a SPF facility.

B1: CL7: anti-CD300c monoclonal antibody, VH3VL1 phage library, VH SEQ ID 327, VL SEQ ID 328 (antibody, V domains shown)
VH: EVQLLESGGGLVQPGGSLRLSCAASGFTFSRYAMSWVRQAPGKGLEWVSAISGSGGSTYYADSVKGRFTISRDNSKNTLYLQMNSLRAEDTAVYYCARSSQGIFDIWGQGTLVTVSS
VL: QSVLTQPPSASGTPGQRVTISCSGNNIGTRRVHWYQQLPDTAPKLLIYSKNNRPSGVPDRFSGSKSGTSASLAISGLRSEDEADYYCAAWDDSLSGPVFGGGTKLTVL
modifications: CL7 Heavy Chain Variable Region; CL7 Light Chain Variable Region
[1]
  expression of M1 macrophage markers CCR7, CD80: significantly increase
  expression of Th1 response markers Tbx21, Stat1, Stat4, Ifn-g, Cxcr3: increase
  expression of agonistic immune checkpoints ICOS, OX40, Gitr, Cd27, Cd28: increases
  expression of dendritic cell markers Bst2, CCL8, Xcl1: significantly increase
  expression of inhibitory immune checkpoints PD-1, CTLA-4, Lag3: increases
  expression of tumor microenvironment markers vegfa, pdgfrb, Col4a1, Hif1a: reduction
[2]
  expression of IFN-g (ELISPOT): increased
[3]
  cell growth inhibitory effect compared with control group: 17%
[4]; MDA-MB-231, 0.1% FBS (second statement)
  cancer cell growth inhibitory effect compared with control group: 19%
[4]; MDA-MB-231, 0.1% FBS as printed (first statement)
  cancer cell growth inhibitory effect compared with control group: 19%
[5]
  production level of TNF-α: increased
[6]
  binding specificity versus other similar proteins: specifically recognized only CD300c without binding to other similar proteins
[7]
  growth of cancer (tumor volume): inhibited
